Patent US20230181719A1, “NGR CONJUGATES AND USES THEREOF” (OSPEDALE SAN RAFFAELE S.R.L., priority 2020, published 2023)
Like-named read-outs stand apart in the source and are kept apart here.

Tests used:
L-M cells = assay: LM-cells cytolytic assay (MTT); type: cell-based; settings: actinomycin D, 20 h, murine proteins
Description: FIG. 8. Biochemical and biological characterization of murine S-NGR-TNF and NGR-TNF. A) SDS-PAGE under reducing (βMe +) and non-reducing conditions (βMe -) of murine S-NGR-TNF, NGR-TNF and TNF. Arrows: bands corresponding to monomeric subunits (mon) and reducible dimers (dim). B) Representative mass spectra of murine NGR-TNF, TNF and S-NGR-TNF as determined by a Q Exactive HF mass spectrometer. Expected average masses are shown. C) Cytotoxic activity of TNF, NGR-TNF and S-NGR-TNF against L-M cells. L-M cells were incubated in DMEM medium supplemented with 2 mM glutamine, 100 U/ml penicillin, 100 µg/ml streptomycin, 0.25 µg/ml amphotericin-B, 10% fetal bovine serum, 2 µg/ml actinomycin D and TNF, NGR-TNF or S-NGR-TNF at the indicated doses (20 h at 37° C., 5% CO2). Cell viability was quantified by standard 3-(4,5-dimethylthiazol-2-yl)-2,5-diphenyltetrazolium bromide (MTT) assay. D) Binding of TNF, NGR-TNF and S-NGR-TNF to sTNF-R1 (Etanercept). Microtiterplates were precoated with or without the indicated amount of sTNF-R1 (for 16 h), washed with PBS, blocked with PBS containing 3% milk, 1% BSA (binding buffer, 1 h) and incubated with the indicated amounts of TNF, NGR-TNF or S-NGR-TNF diluted in binding buffer (for 1.5 h). The binding of each protein to sTNF-R1 was then detected using a polyclonal anti-murine TNF (IP301, 5 µg/ml in binding buffer, 1 h) followed by a polyclonal goat anti-rabbit antibody conjugated with horseradish peroxidase (1:1000 in binding buffer, 1 h) and o-phenylendiammine as chromogenic substrate.
To assess whether the addition of a serine residue to NGR-TNF affects its capability to recognize the TNF receptors and, consequently, its biological activity, inventors then analyzed the cytotoxic activity of TNF, NGR-TNF and S-NGR-TNF in the LM-cells cytolytic assay.

[1] = test system: endothelial EA.hy926 cells; assay: EA.hy926 endothelial cell adhesion assay on protein-coated microtiterplates; type: cell-based
Method: FIG. 12. […] A) Adhesion of endothelial EA.hy926 cells to 96-wells microtiterplates coated with different amounts of murine TNF, NGR-TNF and S-NGR-TNF in 150 mM sodium chloride, 50 mM sodium phosphate buffer, pH 7.4 (PBS) (16 h). Each well was blocked with 2% BSA in PBS containing calcium chloride and magnesium chloride (DPBS, 30 min), seeded with 40.000 endothelial EA.hy926 cells in DPBS supplemented with 0.1% BSA (DPBS-B), and left to incubate for 2 h at 37° C., 5% CO2. After washing with DMEM-B, adherent cells were stained with crystal violet and quantified by spectrophotometric measurements at 570 nm. B) Microtiterplates pre-coated with 1 µg/ml of murine NGR-TNF or S-NGR-TNF in PBS (for 16 h) were incubated 0.1 M ammonium bicarbonate buffer, pH 8.5 (Ambic) at 37° C. for the indicated time to promote NGR deamidation. EA.hy926 cell adhesion assay was then performed as described above.
This behavior likely reflects a further improvement in the CNGRCG (SEQ ID NO: 1) stability when fused to TNF.

[2] = test system: RMA-T lymphoma-bearing mice; type: in vivo; settings: high dose 2 µg and 6 µg
Method: FIG. 13. […] A) Effect of high-dose murine S-NGR-TNF or NGR-TNF on the body weight and tumor volume of RMA-T lymphoma- bearing mice. Six C57BL/6 mice (6-7 weeks old, weighing 18-20 g) were challenged with subcutaneous injection in the left flank of 5 ×10^4 RMA-T cells. Mice bearing RMA lymphomas (6 per group) were treated at day 11 after tumor implantation with 2 µg and 6 µg of murine NGR-TNF or S-NGR-TNF in 0.9% sodium chloride, containing 100 µg/ml endotoxin-free human albumin (i.p.) as indicated (arrows). Animal weights and tumor growth were monitored as indicated. B) Effect of melphalan alone or in combination with low-dose murine S-NGR-TNF on the body weight of RMA-T lymphoma-bearing mice.
To assess the impact of the additional serine residue added to the N-terminus of NGR-TNF on its toxicity and anti-tumor activity inventors injected high-dose NGR-TNF or S-NGR-TNF to mice bearing subcutaneous RMA-T lymphomas (n=6) and evaluated the loss of animal weight. […] Three days later the mice regained the original weight.

WEHI-164 fibrosarcoma = assay: Low-dose treatment in subcutaneous WEHI-164 fibrosarcoma murine model; type: in vivo
Method: FIG. 14. […] Balb/c mice (6-7 weeks old, weighing 18-20 g) were injected, s.c., with 1.5×10^6 WEHI-164 cells in the left flank and treated 5 days after tumor implantation (i.p.) with 25 or 50 pg of murine NGR-TNF or S-NGR-TNF in 0.9% sodium chloride, containing 100 µg/ml endotoxin-free human serum albumin (arrows). A) Tumor volumes after treatment (mean±SE, 6 mice per group). B) Tumor weight at day 15 (cumulative data of the two groups treated with 25 and 50 pg of drugs). *, P<0.05, **P<0.01 by unpaired t test of the area under the curve for each tumor (GraphPad Prism software).
To assess whether the addition of the Ser residue to NGR-TNF might affect its anti-tumor activity at low dose, inventors then analyzed the therapeutic activity of NGR-TNF and S-NGR-TNF (25 or 50 pg, i.p.) using the subcutaneous WEHI-164 fibrosarcoma murine model.

RMA lymphoma = type: in vivo, mice
Method: FIG. 15. […] C57BL/6 mice (6-7 weeks old, weighing 18-20 g) were challenged with subcutaneous injection in the left flank of 7×10^4 RMA cells. Mice bearing RMA lymphomas (6 per group) were treated 10-11 days (after tumor implantation with 100 pg of murine NGR-TNF or S-NGR-TNF (i.p.). Two hours later, the mice were injected with the indicated dose of melphalan (i.p.). All proteins were diluted with 0.9% sodium chloride, containing 100 µg/ml endotoxin-free human albumin. Tumor growth was monitored daily by measuring the tumors with calipers. A-B) Tumor volume change of two independent experiments are shown (mean±SE). […] C) Tumor bearing-animals were treated at day 10 after tumor implantation as indicated above using the indicated dose of S-NGR-TNF and the generic preparation of melphalan (Melphalan-Tillomed, from Tillomed Italia). RMA tumor weight at day 20 are shown (mean±SE). *, P<0.05, **P<0.01 by unpaired t test analysis with the GraphPad Prism software.
Effect of melphalan alone or in combination with low-dose murine S-NGR-TNF on the body weight and tumor growth of RMA-T lymphoma-bearing mice. Six tumor-bearing mice were injected with the indicated doses of S-NGR-TNF (i.p) and, two hours later, with the generic preparation of melphalan (Melphalan-Tillomed) (i.p.).
Finally, to assess whether low-dose S-NGR-TNF can exert synergistic effects with chemotherapy, as previously observed for NGR-TNF, inventors performed in vivo experiments with S-NGR-TNF and NGR-TNF in combination with melphalan, a chemotherapeutic drug, using the murine RMA lymphoma model (FIG. 15).

GL261 glioblastoma [3] = type: in vivo, mice; settings: i.p., 5 ng/kg at day 7, 19 and 31
Description: Effect of S-NGR-mTNF on the […] glioblastoma growth and animal body weight. C57BL/6J mice (9 weeks old, weighing 18-21 g) were intracranially implanted with 2.5 × 10^4 GL21-Luc2 cells.
C) Kaplan-Maier curves of vehicle and S-NGR-mTNF.
Inventors next investigated the antitumor activity of murine S-NGR-TNF (S-NGR-mTNF) in the GL261 glioblastoma model, one of the most frequently used syngeneic murine glioma models. To this aim, inventors have exploited GL261 cells genetically engineered to express luciferase (GL261-luc2). This allows in vivo visualization of tumors growth and response to treatment within the brain by bioluminescence imaging.

GL261 glioblastoma [4] = test system: GL261 glioblastoma
Method: Mice bearing GL21-Luc2 glioblastomas (9-10 per group) were treated at day 7, 14 and 21 after tumor implantation with the S-NGR-mTNF (5 ng/kg, about 100 pg/mouse, i.p.). Two hours later, mice were injected with the indicated dose of doxorubicin (doxo, i.p.). […] Tumor growth was monitored by measuring the tumor-associated bioluminescence at day 7, 11, 14, 18, 21, and 28 after the administration of luciferin.
Bioluminescent murine glioma GL21-Luc2 cells, engineered to stably express the firefly luciferase, were orthotopically implanted in C57BL/6J mice (9 weeks-old) into the right striatum (2.5x10^4 cells/mouse). Pharmacological treatments started on the 7 days after tumor cell implantation. Mice were injected, i.p., with 5 ng/Kg dose of S-NGR-TNF (about 100 pg/mice, diluted in 0.9% sodium chloride solution containing 100 µg/ml of HSA), or in combination with doxorubicin (5 mg/Kg) administered 2 h later. Tumor growth was monitored by non-invasive bioluminescence imaging using a PhotonImager RT system (Biospace Lab, France) after luciferase substrate administration (i.p.).
The antitumor activity of S-NGR-mTNF was then investigated in combination of doxorubicin (doxo), a chemotherapeutic drug, in the GL261-luc2 model. To this aims, tumor bearing-animal were treated at day 7, 14 and 21 post tumor implantation with S-NGR-mTNF (5 ng/kg, i.p.) and 2 h later with doxo (i.p., 5 mg/kg, corresponding to about 100 µg/mouse). In parallel, control mice were treated with vehicle or doxo alone.

B1: S-NGR-TNF: Murine SCNGRCG-TNF fusion protein: serine residue added to the N-terminus of NGR-TNF (SEQ ID NO: 26) (protein)
chain: SCNGRCGLRSSSQNSSDKPVAHVVANHQVEEQLEWLSQRANALLANGMDLKDNQLVVPADGLYLVYSQVLFKGQGCPDYVLLTHTVSRFAISYQEKVNLLSAVKSPCPKDTPEGAELKPWYEPIYLGGVFQLEKGDQLSAEVNLPKYLDFAESGQVYFGVIAL
EC50 cytotoxic activity (L-M cells): very similar | EA.hy926 cell adhesion to coated plates ([1]; plates coated in PBS, no forced deamidation): not | EA.hy926 cell adhesion after forced deamidation ([1]; plates treated with 0.1 M ammonium bicarbonate buffer, pH 8.5, compared to NGR-TNF): a longer time of incubation under deamidation conditions was necessary | antitumor effects compared to NGR-TNF [2]: slightly stronger antitumor effects | anti-tumor effects compared to 25 pg of NGR-TNF (WEHI-164 fibrosarcoma; 25 pg): slightly stronger anti-tumor effects | toxicity (WEHI-164 fibrosarcoma; 25 or 50 pg, i.p.): No evidence of toxicity | tumor growth (WEHI-164 fibrosarcoma; 25 or 50 pg, i.p.): delayed tumor growth to similar extent | efficacy of melphalan in combination (RMA lymphoma; 100 pg i.p., melphalan two hours later): could enhance the efficacy of melphalan | antitumor activity of combination (RMA lymphoma; S-NGR-TNF 100 pg with melphalan 50 µg): significant increase of antitumor activity | antitumor effect compared to NGR-TNF (RMA lymphoma; in combination with melphalan): slightly stronger antitumor effect | gain of body weight of cured animals (GL261 glioblastoma [3]): about +15% | tumor growth (GL261 glioblastoma [3]): significantly delayed tumor growth | mice with delayed tumor growth (GL261 glioblastoma [4]; S-NGR-mTNF 5 ng/kg i.p. and 2 h later doxo 5 mg/kg, day 7, 14, 21): 55% | toxicity of doxo, judged from loss of animal weight (GL261 glioblastoma [4]; S-NGR-mTNF 5 ng/kg with doxo 5 mg/kg): did not exacerbate the toxicity of doxo | tumor growth (GL261 glioblastoma [4]; S-NGR-mTNF 5 ng/kg with doxo 5 mg/kg (combination therapy)): could significantly delay tumor growth
